Test results as given in patent US20250277048A1.

Biological target: human CD40 (hCD40) expressed on cells (human) (UniProt P25942)
Test: cell-based or functional assay

Sequence of human CD40 (hCD40) expressed on cells (human) (P25942 21-277): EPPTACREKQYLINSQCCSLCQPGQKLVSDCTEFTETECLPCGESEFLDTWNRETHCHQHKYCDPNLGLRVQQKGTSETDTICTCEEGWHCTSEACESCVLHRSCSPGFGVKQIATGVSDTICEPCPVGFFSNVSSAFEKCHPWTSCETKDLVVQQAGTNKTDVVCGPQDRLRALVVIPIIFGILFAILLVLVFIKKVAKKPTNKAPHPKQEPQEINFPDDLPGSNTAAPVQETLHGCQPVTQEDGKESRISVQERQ

Work on “human CD40L (soluble, used in the cell assays) (from UniProt P29965 113-261) (ligand)” yielded an EC50 of activation, Raji/NFkB-luc of 691 pM, an EC50 of activation, Ramos.2G6.4C10/NFkB-luc of 436 pM and an EC50 of activation, THP-1/NFkB-luc of 1470 pM.
